Consider two molecules from PMC11444335, “Next-generation cell-penetrating antibodies for tumor targeting and RAD51 inhibition” (Oncotarget, 2024).

Substitutions are numbered along the chain they refer to. Names may count otherwise.

In this assay the target is T1, human RAD51 (Homo sapiens, UniProt Q06609).
T1 construct: DNA repair protein RAD51, human, expressed from the CMV-hRAD51 plasmid (Addgene #125570); Endogenous RAD51 of the MCF7 cells is also present and would be detected by the same anti-RAD51 blot; also called hRAD51; source: MCF7, transiently transfected with CMV-hRAD51 plasmid, in cells and lysate
T1 sequence (Q06609 whole entry): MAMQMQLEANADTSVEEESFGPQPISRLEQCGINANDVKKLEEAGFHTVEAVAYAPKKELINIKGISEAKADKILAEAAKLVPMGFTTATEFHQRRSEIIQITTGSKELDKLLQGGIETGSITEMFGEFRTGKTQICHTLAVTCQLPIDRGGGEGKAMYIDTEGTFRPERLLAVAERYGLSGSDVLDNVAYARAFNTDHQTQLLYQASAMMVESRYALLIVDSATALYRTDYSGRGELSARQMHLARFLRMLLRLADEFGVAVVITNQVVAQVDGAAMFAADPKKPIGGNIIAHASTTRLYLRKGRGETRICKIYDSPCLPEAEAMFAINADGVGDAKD
The assay is described as follows: cross-linking + co-IP; CLIP: MCF7 cells transfected with 10 ug CMV-hRAD51 plasmid, treated with 500 nM purified antibody for 6 h, UV crosslinked, lysed; antibody captured on Protein A/G beads, eluate blotted with anti-RAD51; RAD51 signal normalized to Fc signal of the lysate and to WT. The following applies: one partner purified.

B1: fully humanized full-length 3E10 variant V31 (VH3 + VL1, IgG1) (antibody, V domains shown)
VH: EVQLVESGGGLVQPGGSLRLSCAASGFTFSNYGMHWVRQAPGKGLEWVAYISSGSSTIYYADTVKGRFTISRDNAKNSLYLQMTSLRAEDTAMYYCARRGLLLDYWGQGTLVTVSS
VL: DIVLTQSPASLAVSPGQRATITCRASKSVSTSSYSYMHWYQQKPGQPPKLLIYYASYLESGVPARFSGSGSGTDFTLTINPVEANDTANYYCQHSREFPWTFGGGTKVEIK
notes: humanized VH3 (CDR graft of 3E10 on germline IGHV3-48*01, with N31); human IgG1 heavy chain constant region; humanized VL1 (CDR graft of 3E10 on germline IGKV7-3*01); IgG1; all humanized variants contain the D31N mutation; source: Chinese hamster ovary cells, purified (Genscript)
For the molecule B1, the binding result was “binds”.

B2: full-length chimeric WT 3E10 (murine variable chains, human IgG1 Fc domain) (antibody, V domains shown)
VH: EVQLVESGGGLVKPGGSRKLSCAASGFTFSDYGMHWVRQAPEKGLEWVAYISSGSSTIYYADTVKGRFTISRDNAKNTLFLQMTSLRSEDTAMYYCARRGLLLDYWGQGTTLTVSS
VL: B1 VL with P15L, T22S, Y53K, T78N, N80H, A84E, N85E, T87A, N89T, V108L
notes: murine 3E10 VH, wild type (D31 in CDR1); human IgG1 heavy chain constant region; murine 3E10 VL, wild type; IgG1 chimera; also called parental 3E10; source: purified antibody
Consider B2, for which the binding result is “binds”.
